# B1: "Bis(monoacylglycero)phosphate synthase CLN5" (Homo sapiens), O75503 (parent)
# chain: MAQEVDTAQGAEMRRGAGAARGRASWCWALALLWLAVVPGWSRVSGIPSRRHWPVPYKRFDFRPKPDPYCQAKYTFCPTGSPIPVMEGDDDIEVFRLQAPVWEFKYGDLLGHLKIMHDAIGFRSTLTGKNYTMEWYELFQLGNCTFPHLRPEMDAPFWCNQGAACFFEGIDDVHWKENGTLVQVATISGNMFNQMAKWVKQDNETGIYYETWNVKASPEKGAETWFDSYDCSKFVLRTFNKLAEFGAEFKNIETNYTRIFLYSGEPTYLGNETSVFGPTGNKTLGLAIKRFYYPFKPHLPTKEFLLSLLQIFDAVIVHKQFYLFYNFEYWFLPMKFPFIKITYEEIPLPIRNKTLSGL
# partner: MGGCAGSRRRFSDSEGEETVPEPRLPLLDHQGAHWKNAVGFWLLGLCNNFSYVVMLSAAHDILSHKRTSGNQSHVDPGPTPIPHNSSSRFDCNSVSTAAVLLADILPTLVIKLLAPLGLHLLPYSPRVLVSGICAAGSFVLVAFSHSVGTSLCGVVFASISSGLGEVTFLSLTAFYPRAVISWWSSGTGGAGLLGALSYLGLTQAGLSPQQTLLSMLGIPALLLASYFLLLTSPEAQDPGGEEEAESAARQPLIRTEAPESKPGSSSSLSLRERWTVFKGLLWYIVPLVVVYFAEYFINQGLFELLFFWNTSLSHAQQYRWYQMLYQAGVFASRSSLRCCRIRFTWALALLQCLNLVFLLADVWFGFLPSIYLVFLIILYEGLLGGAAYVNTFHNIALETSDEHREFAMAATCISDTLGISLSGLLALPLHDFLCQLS
# Variants of: B1
# Conditions: with cln3_human CLN3, Q13286
row,effect of a mutation on the interaction,Variant
1,with no effect,MAQEVDTAQGAEMRRGAGAARGRASWCWALALLWLAVVPGWSRVSGIPSRRHWPVPYKRFDFRPKPDPYCQAKYTFCPTGSPIPVMEGDDDIEVFRLQAPVWEFKYGDLLGHLKIMHDAIGFRSTLTGKNYTMEWYELFQLGNCTFPHLRPEMDAPFWCNQGAACFFEGIDDVHWKENGTLVQVATISGNMFNQMAKWVKQDNETGIYYETWNVKASPEKGAETWFDSYNCSKFVLRTFNKLAEFGAEFKNIETNYTRIFLYSGEPTYLGNETSVFGPTGNKTLGLAIKRFYYPFKPHLPTKEFLLSLLQIFDAVIVHKQFYLFYNFEYWFLPMKFPFIKITYEEIPLPIRNKTLSGL [D230N]
